Results published in patent publication US20220064276A1 (SCHOLAR ROCK, published 2022).
Substitutions are numbered along the chain they refer to. Blank lines part the entries; values can stand above or below the binder they belong to.

Tests used:
[1] = target: T1, human LTBP3-proTGFβ1 complex (human, UniProt Q9NS15 44-1303; P01137 30-390, limits assumed); test: SPR Biacore 8K, Fab over captured antigen
T1 construct: Exemplary entries; also called Hu LTBP3-proTGFβ1; huLTBP3 proTGFb1
Method: (§1) A Biacore 8K system was employed to determine the monovalent binding affinity and the kinetic parameters for antigen binding of test antibodies. Association and dissociation kinetics of Fab fragments SR-AB42-HuFab, SR-AB63-HuFab and SR-AB43-HuFab to antigen complexes were measured, and resulting ka, kd and KD are provided below. Briefly, the binding kinetics were evaluated by surface plasmon resonance using Biacore 8K (GE Healthcare). Biotinylated capture antigens were immobilized to the chip (10 nM, ˜200 RU loading). A Biotin CAPture sensor chip was used to capture the biotinylated antigens. […] 0 nM was used as a reference. […] 0 nM was used as a reference. Multi-cycle kinetics was employed where each analyte concentration was injected in a separate cycle and the sensor chip surface was regenerated after each cycle. A11 the assays were carried out in freshly prepared 1× HBS-EP+ buffer (10 mM HEPES, 150 mM NaCl, 3 mM EDTA, 0.05% Tween20, pH 7.4). Data were fit globally to a 1:1 binding model to obtain the kinetic parameters. The sensorgram for 0 nM analyte concentration was used as reference.

[2] = target: T2, human LTBP1-proTGFβ1 complex (human, UniProt Q14766 347-1721; P01137 30-390); test: SPR Biacore 8K, Fab over captured antigen; mean of 4
T2 construct: Large latent complex: one presenting molecule disulfide-linked to a proTGFβ1 dimer; also called Hu LTBP1-proTGFβ1; huLTBP1 proTGFβ1
Method: as §1

[3] = target: T3, human GARP-proTGFβ1 complex (human, UniProt Q14392 18-627; P01137 30-390, limits assumed); test: SPR Biacore 8K, Fab up to 100 nM over captured antigen
T3 construct: Exemplary entries; also called Hu GARP-proTGFβ1; huGARP proTGFb1
Method: as §1

[4] = target: T4, human LRRC33-proTGFβ1 complex (human, UniProt Q86YC3 19-650; P01137 30-390, limits assumed); test: as above
T4 construct: Exemplary entries; also called huLRRC33 proTGFb1; HuLRRC33-ProTGFb1
Method: as §1

[5] = target: T2, human LTBP1-proTGFβ1 complex; test: SPR (Biacore 8K), biotinylated antigen captured, Fab as analyte, 1:1 fit (Example 9); table beside the sensorgrams
Method: as §1

[6] = target: T1, human LTBP3-proTGFβ1 complex; test: as above
Method: as §1

[7] = target: T2, human LTBP1-proTGFβ1 complex; test: SPR Biacore 8K, monovalent Fab
Method: (§2) Data collection rate was set to 10 Hz and the Biotin CAPture step was performed for 300 seconds with a flow rate of 2 μL/minute. The Biotin CAPture reagent was used after a 1:5 dilution in 1× Biacore running buffer. Biotinylated ligands (the various complexes of TGFβ1) were utilized at a concentration of 10 nM and were immobilized to the sensor chip for 180 seconds with a flow rate of 10 μL/minute. […] Analyte contact time was 120 seconds and the dissociation time was 900 seconds. The regeneration cycle utilized was 120 seconds with a flow rate of 10 μL/minute.
(§3) The evaluation method used was “multi-cycle affinity using capture” and a 1:1 binding model was used. […] Global fits were utilized for every KD determination.
(§4) The monovalent half-binding-time (T^{1/2}) value was at least 45 minutes for each of hLTBP1-proTGFβ1 and hLTBP3-proTGFβ1 complexes. The monovalent T^{1/2} value was less than 5 minutes for each of hGARP-proTGFβ1 and hLRRC33-proTGFβ1 complexes, as measured by SPR.

[8] = target: T1, human LTBP3-proTGFβ1 complex; test: SPR Biacore 8K, monovalent Fab
Method: as §2, §3, §4

[9] = target: T5, mouse LTBP1-proTGFβ1 complex (mouse, UniProt Q8CG19 339-1712; P04202 30-390); test: SPR Biacore 8K, monovalent Fab
T5 construct: Exemplary entries; In the cell assays expressed from mouse LTBP1S and mouse proTGFb1 plasmids in LN229 cells; also called Mo LTBP1-proTGFβ1; MuLTBP1-ProTGFb1
Method: as §2, §3, §4

[10] = target: T6, mouse LTBP3-proTGFβ1 complex (mouse, UniProt Q61810 41-1245; P04202 30-390, limits assumed); test: SPR Biacore 8K, monovalent Fab
T6 construct: Exemplary entries; also called Mo LTBP3-proTGFβ1; Murine LTBP3 proTGFb1
Method: as §2, §3, §4

[11] = target: T3, human GARP-proTGFβ1 complex; test: SPR Biacore 8K, monovalent Fab
Method: as §2, §3, §4

[12] = target: T4, human LRRC33-proTGFβ1 complex; test: SPR Biacore 8K, monovalent Fab
Method: as §2, §3, §4

[13] = target: T7, mouse GARP-proTGFβ1 complex (mouse, UniProt G3XA59 18-628; P04202 30-390, limits assumed); test: SPR Biacore 8K, monovalent Fab
T7 construct: Exemplary entries; also called MuGARP-ProTGFb1; Mu GARP-ProTGFβ1
Method: as §2, §3, §4

[14] = target: T8, mouse LRRC33-proTGFβ1 complex (mouse, UniProt Q8BMT4 20-651, limits assumed); test: SPR Biacore 8K, monovalent Fab
T8 construct: also called MuLRRC33-ProTGFb1; Mu LRRC33-ProTGFβ1
Method: as §2, §3, §4

[15] = target: T2, human LTBP1-proTGFβ1 complex; test: SPR Biacore 8K, Fab over captured antigen; mean of 5
Method: as §1

[16] = target: T6, mouse LTBP3-proTGFβ1 complex; test: SPR Biacore 8K, Fab over captured antigen; mean of 2
Method: as §1

[17] = target: T2, human LTBP1-proTGFβ1 complex; test: SPR Biacore 8K, Fab over captured antigen, Rmax fixed
Method: (§5) These experiments were performed using the Biacore 8K using the method “multi-cycle kinetics/affinity using Biotin CAPture kit.”
as §2, §3

[18] = target: T1, human LTBP3-proTGFβ1 complex; test: as above
Method: as §5, §2, §3

[19] = target: T5, mouse LTBP1-proTGFβ1 complex; test: as above
Method: as §5, §2, §3

[20] = target: T6, mouse LTBP3-proTGFβ1 complex; test: as above
Method: as §5, §2, §3

[21] = target: T3, human GARP-proTGFβ1 complex; test: as above
Method: as §5, §2, §3

[22] = target: T4, human LRRC33-proTGFβ1 complex; test: as above
Method: as §5, §2, §3

[23] = target: T7, mouse GARP-proTGFβ1 complex; test: as above
Method: as §5, §2, §3

[24] = target: T8, mouse LRRC33-proTGFβ1 complex; test: as above
Method: as §5, §2, §3

[25] = target: LTBP-proTGFβ1: transfected human proTGFβ1 presented by endogenous LTBP1/3 of LN229 cells (human); test: cell-based or functional assay
[26] = target: T5, mouse LTBP1-proTGFβ1 complex; test: cell-based or functional assay
[27] = target: T2, human LTBP1-proTGFβ1 complex; test: Octet BLI, IgG captured
Outline: (§6)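 IgG captured on the Octet biosensor, with complex antigen associating for 3 min and dissociating for 5 min in kinetics buffer. KD was fitted with a 1:1 binding model for each antibody–antigen pair.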

[28] = target: T1, human LTBP3-proTGFβ1 complex; test: Octet BLI, IgG captured
Outline: as §6

[29] = target: T5, mouse LTBP1-proTGFβ1 complex; test: Octet BLI, IgG captured
Outline: as §6

[30] = target: T6, mouse LTBP3-proTGFβ1 complex; test: Octet BLI, IgG captured
Outline: as §6

[31] = target: T3, human GARP-proTGFβ1 complex; test: Octet BLI (N.B. = non-binder under conditions of this assay)
Method: Binding affinities of the optimized antibodies were measured by Octet against human LTBP1-proTGFβ1, human LTBP3-proTGFβ1, mouse LTBP1-proTGFβ1, mouse LTBP3-proTGFβ1, and GARP-proTGFβ1 complexes, essentially as described in Example 6. […] The antigens were allowed to associate for 3 minutes followed by a 5-minute dissociation. Kinetics buffer (ForteBio®) was used throughout the experiment, and KD was determined using a 1:1 fitting model for each antibody antigen pair.
Table 9 presents the binding profile and affinity data for the indicated LTBP complex-specific antibodies (IgG1-agly) identified from the light chain optimization cycle 3, determined by Octet.

T5 sequence (Q8CG19 339-1712 limits assumed, chain 1 of 2): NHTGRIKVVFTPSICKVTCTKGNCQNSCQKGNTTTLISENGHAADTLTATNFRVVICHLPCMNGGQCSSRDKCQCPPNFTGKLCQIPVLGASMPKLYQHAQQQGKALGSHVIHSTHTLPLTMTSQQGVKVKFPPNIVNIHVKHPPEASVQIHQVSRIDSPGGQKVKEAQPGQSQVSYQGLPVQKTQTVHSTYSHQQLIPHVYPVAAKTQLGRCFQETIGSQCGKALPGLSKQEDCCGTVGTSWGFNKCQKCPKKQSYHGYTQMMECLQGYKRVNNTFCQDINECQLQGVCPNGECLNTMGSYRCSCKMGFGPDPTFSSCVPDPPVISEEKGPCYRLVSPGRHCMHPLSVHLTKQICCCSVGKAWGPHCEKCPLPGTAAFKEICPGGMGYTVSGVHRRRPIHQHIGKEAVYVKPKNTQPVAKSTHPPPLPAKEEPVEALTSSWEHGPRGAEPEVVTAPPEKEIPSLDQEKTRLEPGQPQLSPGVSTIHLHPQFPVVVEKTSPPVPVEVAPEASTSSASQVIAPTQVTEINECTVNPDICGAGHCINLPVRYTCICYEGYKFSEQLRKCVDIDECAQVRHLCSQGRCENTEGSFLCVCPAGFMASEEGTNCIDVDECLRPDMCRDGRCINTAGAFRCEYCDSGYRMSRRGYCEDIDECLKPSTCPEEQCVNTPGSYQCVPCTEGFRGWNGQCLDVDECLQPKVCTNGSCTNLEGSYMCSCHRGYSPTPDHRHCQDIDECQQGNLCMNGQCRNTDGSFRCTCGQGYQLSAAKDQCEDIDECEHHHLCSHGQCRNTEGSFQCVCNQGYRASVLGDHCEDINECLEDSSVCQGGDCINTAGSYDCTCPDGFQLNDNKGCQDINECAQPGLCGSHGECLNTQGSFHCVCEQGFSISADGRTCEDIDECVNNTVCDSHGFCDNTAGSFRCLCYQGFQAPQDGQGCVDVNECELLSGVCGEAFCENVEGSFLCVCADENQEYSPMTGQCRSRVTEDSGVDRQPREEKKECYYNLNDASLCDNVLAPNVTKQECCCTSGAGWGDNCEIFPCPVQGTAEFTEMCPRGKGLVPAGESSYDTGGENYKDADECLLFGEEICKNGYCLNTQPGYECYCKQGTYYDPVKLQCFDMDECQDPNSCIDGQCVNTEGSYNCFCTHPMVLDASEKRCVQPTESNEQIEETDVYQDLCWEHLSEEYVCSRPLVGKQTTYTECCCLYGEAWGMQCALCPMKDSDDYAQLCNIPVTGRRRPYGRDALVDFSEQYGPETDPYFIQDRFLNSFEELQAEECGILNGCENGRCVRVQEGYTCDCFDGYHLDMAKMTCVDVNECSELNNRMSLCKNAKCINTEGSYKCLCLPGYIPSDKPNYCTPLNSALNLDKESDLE
T5 sequence (P04202 30-390 limits assumed, chain 2 of 2): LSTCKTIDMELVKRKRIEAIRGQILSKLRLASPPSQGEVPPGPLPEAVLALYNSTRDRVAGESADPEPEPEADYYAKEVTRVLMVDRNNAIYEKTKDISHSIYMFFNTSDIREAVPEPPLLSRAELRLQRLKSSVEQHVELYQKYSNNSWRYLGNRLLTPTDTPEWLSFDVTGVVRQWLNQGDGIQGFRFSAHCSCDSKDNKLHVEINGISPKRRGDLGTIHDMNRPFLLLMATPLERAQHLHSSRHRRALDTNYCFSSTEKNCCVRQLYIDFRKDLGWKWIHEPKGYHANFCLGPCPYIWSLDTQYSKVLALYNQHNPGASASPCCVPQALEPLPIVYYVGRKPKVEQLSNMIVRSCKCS
T8 sequence (Q8BMT4 20-651 limits assumed, chain 1 of 2): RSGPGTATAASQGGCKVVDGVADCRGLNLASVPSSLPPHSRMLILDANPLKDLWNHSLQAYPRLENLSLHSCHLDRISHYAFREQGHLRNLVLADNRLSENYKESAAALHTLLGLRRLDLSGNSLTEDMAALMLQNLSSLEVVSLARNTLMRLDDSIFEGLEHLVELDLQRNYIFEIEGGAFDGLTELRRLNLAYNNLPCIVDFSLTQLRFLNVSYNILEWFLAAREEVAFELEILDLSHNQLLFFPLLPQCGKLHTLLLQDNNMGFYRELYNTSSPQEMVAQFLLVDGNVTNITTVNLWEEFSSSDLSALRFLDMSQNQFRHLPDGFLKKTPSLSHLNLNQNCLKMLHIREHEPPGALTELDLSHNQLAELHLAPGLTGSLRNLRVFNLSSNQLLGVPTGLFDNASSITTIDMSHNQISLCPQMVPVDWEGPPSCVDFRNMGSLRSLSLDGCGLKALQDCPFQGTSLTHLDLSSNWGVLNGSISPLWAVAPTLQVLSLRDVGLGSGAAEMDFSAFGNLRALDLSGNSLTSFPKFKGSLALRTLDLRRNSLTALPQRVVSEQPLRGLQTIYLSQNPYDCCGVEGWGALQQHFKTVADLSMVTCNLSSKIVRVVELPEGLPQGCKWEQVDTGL
T8 sequence (chain, as listed by the source limits assumed, chain 2 of 2): as the sequence (P04202 30-390 limits assumed, chain 2 of 2) above
T3 sequence (Q14392 18-627 limits assumed, chain 1 of 2): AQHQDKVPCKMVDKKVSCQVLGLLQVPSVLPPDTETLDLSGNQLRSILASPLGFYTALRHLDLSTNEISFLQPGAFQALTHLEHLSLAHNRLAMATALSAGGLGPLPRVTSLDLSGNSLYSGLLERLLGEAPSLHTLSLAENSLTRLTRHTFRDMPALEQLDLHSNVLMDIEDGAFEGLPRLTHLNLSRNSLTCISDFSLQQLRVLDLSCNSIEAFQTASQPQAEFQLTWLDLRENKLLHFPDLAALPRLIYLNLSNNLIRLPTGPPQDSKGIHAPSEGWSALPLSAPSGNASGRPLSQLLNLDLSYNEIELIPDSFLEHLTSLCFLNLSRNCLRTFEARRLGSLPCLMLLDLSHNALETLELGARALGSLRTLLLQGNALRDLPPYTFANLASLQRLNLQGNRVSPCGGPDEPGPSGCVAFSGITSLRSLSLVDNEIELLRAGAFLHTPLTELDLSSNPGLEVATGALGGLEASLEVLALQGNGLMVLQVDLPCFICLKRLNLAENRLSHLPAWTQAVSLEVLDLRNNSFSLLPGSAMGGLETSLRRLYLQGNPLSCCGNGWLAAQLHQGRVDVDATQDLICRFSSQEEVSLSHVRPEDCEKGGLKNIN
T3 sequence (P01137 30-390 limits assumed, chain 2 of 2): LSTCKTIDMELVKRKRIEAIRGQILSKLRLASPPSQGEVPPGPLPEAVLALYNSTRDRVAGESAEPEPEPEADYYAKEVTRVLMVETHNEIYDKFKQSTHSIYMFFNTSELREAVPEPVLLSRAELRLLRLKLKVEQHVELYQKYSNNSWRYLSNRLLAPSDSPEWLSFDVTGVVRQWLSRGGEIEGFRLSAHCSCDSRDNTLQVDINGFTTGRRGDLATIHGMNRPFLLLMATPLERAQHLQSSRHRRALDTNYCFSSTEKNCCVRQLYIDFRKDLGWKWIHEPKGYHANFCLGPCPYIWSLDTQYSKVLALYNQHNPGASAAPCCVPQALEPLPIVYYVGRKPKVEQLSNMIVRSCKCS
T2 sequence (Q14766 347-1721 limits assumed, chain 1 of 2): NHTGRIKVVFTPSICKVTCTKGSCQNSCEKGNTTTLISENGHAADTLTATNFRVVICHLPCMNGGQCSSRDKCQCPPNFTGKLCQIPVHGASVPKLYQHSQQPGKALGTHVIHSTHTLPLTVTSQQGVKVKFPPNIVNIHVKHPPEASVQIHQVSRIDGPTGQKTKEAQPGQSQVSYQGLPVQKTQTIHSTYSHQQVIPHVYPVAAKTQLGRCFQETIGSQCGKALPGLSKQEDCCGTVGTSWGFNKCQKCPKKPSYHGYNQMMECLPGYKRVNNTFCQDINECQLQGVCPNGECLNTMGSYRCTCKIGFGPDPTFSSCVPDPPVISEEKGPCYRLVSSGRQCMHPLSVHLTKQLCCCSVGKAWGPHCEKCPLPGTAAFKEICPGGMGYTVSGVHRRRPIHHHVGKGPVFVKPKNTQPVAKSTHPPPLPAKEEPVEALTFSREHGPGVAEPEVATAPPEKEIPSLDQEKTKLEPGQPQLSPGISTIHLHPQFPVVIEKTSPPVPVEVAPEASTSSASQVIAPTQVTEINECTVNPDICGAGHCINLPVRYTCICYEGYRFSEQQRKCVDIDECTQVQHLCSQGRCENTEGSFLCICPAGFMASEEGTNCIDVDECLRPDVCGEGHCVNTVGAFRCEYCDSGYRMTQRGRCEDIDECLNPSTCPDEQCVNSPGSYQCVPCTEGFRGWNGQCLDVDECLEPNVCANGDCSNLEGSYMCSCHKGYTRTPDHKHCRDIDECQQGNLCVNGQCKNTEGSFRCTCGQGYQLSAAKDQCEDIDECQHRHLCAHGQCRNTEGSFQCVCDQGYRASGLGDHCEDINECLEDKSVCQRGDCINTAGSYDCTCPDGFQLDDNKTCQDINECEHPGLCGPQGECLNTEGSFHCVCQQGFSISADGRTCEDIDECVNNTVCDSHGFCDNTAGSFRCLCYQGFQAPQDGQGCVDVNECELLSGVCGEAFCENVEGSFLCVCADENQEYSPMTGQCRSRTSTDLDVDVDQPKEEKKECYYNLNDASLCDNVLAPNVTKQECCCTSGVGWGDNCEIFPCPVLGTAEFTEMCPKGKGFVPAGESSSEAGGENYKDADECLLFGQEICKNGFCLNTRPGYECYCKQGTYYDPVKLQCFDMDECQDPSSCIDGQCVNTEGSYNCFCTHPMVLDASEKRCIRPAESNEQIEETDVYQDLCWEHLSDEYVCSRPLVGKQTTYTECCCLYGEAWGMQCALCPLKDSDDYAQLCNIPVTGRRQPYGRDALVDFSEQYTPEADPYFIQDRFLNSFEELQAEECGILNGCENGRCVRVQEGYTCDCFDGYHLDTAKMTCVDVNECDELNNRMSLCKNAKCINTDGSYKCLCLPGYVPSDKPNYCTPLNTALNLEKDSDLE
T2 sequence (P01137 30-390 limits assumed, chain 2 of 2): as the sequence (P01137 30-390 limits assumed, chain 2 of 2) above
Chain of LTBP-proTGFβ1: transfected human proTGFβ1 presented by endogenous LTBP1/3 of LN229 cells (human) (P01137 30-390): as the sequence (P01137 30-390 limits assumed, chain 2 of 2) above

- Kd [1]: 0.127 nM
- koff [1]: 4.99e-05 s⁻¹
- kon [1]: 394000 M⁻¹ s⁻¹
- Kd [2]: 0.000103 nM
- koff [2]: 3.82e-08 s⁻¹
- kon [2]: 371000 M⁻¹ s⁻¹
- Kd [3]: 349 nM
- koff [3]: 0.00093 s⁻¹
- kon [3]: 2660 M⁻¹ s⁻¹
- Kd [4]: 216 nM
- koff [4]: 0.00108 s⁻¹
- kon [4]: 5000 M⁻¹ s⁻¹
- Kd [5]: 0.03 nM
- Kd [6]: 0.1 nM
B1: SR-AB63-HuFab (Fab, V domains shown)
VH: QLQLQESGPGLVKPSETLSLTCTVSGGSIRSSSYYWGWIRQPPGKGLEWIGSISYSATTYYNPSLKSRVTISVDTSKNQFSLKLSSVTAADTAVYYCAGDPSYDSIAGMQVWGQGTTVTVSS
VL: DIQLTQSPSSLSASVGDRVTITCRASQSISSYLNWYQQKPGKAPKLLIYAASNLQSGVPSRFSGSGSGTDFTLTISSLQPEDFATYYCQQSFDWPLTFGGGTKVEIK
notes: Human Fab

- T1/2 Binding [7]: 102 min
- Kd [8]: 0.57 nM
- T1/2 Binding [8]: 102 min
- Kd [9]: 0.6 nM
- T1/2 Binding [9]: 66 min
- Kd [10]: 0.68 nM
- T1/2 Binding [10]: 72 min
- Kd [11]: 144 nM
- T1/2 Binding [11]: 1.9 min
- Kd [12]: 134 nM
- T1/2 Binding [12]: 4.3 min
- Kd [13]: 29 nM
- T1/2 Binding [13]: 5.1 min
- Kd [14]: 110 nM
- T1/2 Binding [14]: 7.4 min
- Kd [1]: 0.35 nM
- koff [1]: 0.000142 s⁻¹
- kon [1]: 405000 M⁻¹ s⁻¹
- Kd [15]: 0.194 nM
- koff [15]: 0.000105 s⁻¹
- kon [15]: 543000 M⁻¹ s⁻¹
- Kd [16]: 2.66 nM
- Kd [17]: 0.381 nM
- Kd [18]: 0.57 nM
- Kd [19]: 0.611 nM
- Kd [20]: 0.68 nM
- Kd [21]: 145 nM
- Kd [22]: 134 nM
- Kd [23]: 29.1 nM
- Kd [24]: 110 nM
- Kd [3]: 38.9 nM
- koff [3]: 0.00604 s⁻¹
- kon [3]: 155000 M⁻¹ s⁻¹
- Kd [4]: 43.6 nM
- koff [4]: 0.00353 s⁻¹
- kon [4]: 80900 M⁻¹ s⁻¹
B2: SR-AB42-HuFab (Fab, V domains shown)
VH: QVQLVESGGGVVQPGRSLRLSCAASGFTFRSYVMHWVRQAPGKGLEWVAVISHEGSLKYYADSVKGRFTISRDNSKNTLYLQMNSLRAEDTAVYYCARPRIAARRGGFGYWGQGTLVTVSS
VL: NFMLTQPHSVSESPGKTVTISCTRSSGNIDNNYVQWYQQRPGSSPTTVIYEDNQRPSGVPDRFSGSIDSSSNSASLTISGLKTEDEADYYCQSYDYDTQGVVFGGGTKLTVL
notes: Human Fab; also called SR-AB42 Fab; LTBP-SR-AB42 HuFab

- IC50, endogenous hLTBP assay (CAGA12 luciferase) [25]: 1.76 nM
- IC50, mLTBP1 assay (CAGA12 luciferase) [26]: 0.319 nM
- Kd [27]: 0.649 nM
- koff [27]: 0.000159 s⁻¹
- kon [27]: 244000 M⁻¹ s⁻¹
- Kd [28]: 0.178 nM
- koff [28]: 6e-05 s⁻¹
- kon [28]: 337000 M⁻¹ s⁻¹
- Kd [29]: 0.731 nM
- Kd [30]: 0.891 nM
- binding result [31]: no binding (tested: antigen 100 nM)
B3: SR-AB43 (antibody, IgG1, V domains shown)
VH: B2 VH
VL: B2 VL with N31Y, Q54V, Y96S, T98N, G100R
notes: Cycle 3, lineage SR-AB23
